The RNAGym collection of RNA variant scans (doi:10.1073/pnas.2313332121)

B1: TPR t1 (parent)
chain: GACCAAUCUGCCCUCAGAGCUCGAGAACAUCUUCGGAUGCAGAGGAGGCAGGCUUCGGUGGCGCGAUAGCGCCAACGUCCUCAACCUCCAAUGCAUCCCACCACAUGAUGAUGCCUGAAGAGCCUUGGUUUUUUG

Variants of: B1
Test: polymerase ribozyme fitness, log enrichment relative to wild type (log ratio); higher = more active; in vitro selection for triplet polymerase activity
Method in brief: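 Mutant libraries were PCR-built and transcribed for each subunit of a heterodimeric triplet polymerase ribozyme and selected for one round in triplicate at −7 °C, frozen, before gel excision of extended constructs and streptavidin-bead capture. Input and output libraries were Illumina-sequenced, keeping genotypes with ≥10 input reads and ≥1 read per output. Fitness is a logarithmic ratio of genotype to wild-type enrichment, in base 2, using inverse-variance-weighted replicate averages.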

| Variant | polymerase ribozyme fitness (log ratio) |
| --- | --- |
| U9G C13U C73U A119G | 1.11 |
| U9A C34U A37C A46U C56U G107C C114U G122A G127C | -7.05 |
| U9A U32A C62U C114A | -4.44 |
| U9G G48C G120A U130A G135U | -0.622 |
| U9A A46U G63C C82G C86A | -1.25 |
| U9C A41U C70A U125A | -4.15 |
| C8U U9G U59C C72U | 0.524 |
| U9G C72U C86A | -0.508 |
| U9A G63C A84U G120A | 0.752 |
| U9G G17A C56U A83U C89A C101A | -4.6 |
| U9G A26C U54A U55A C88U G93A | -6.29 |
| U9A C13U U92A C101A | -4.36 |
| C8U C56U C89A A118U | -1.04 |
| U9G A16G C73G G110A U132A | -2.97 |
| C8G U55A | 0.0363 |
| U9A G69U | 0.755 |
| U9G C12U C13G G47C C56U | -1.38 |
| U9C C15A G44U G60C A91U | -1.82 |
| U9A A18U A41G U92A | -2.99 |
| U9A C13U G63A C88A G113C U129G U134G | -3.06 |
| U9G C53A A95C U112G | -0.929 |

| Variant | polymerase ribozyme fitness (log ratio) |
| --- | --- |
| C8U C15U G36A A68G C97U G120A | -1.91 |
| U9G C15A G58A C97U U116G U129G | -5.21 |
| C8G U30C C70U G113C U133A | -5.26 |
| U9G C56U | -0.823 |
| U9C C40U U112G | 0.239 |
| U9G C12G U33A G42A C72G G93A G110U U116A | -7.22 |
| C8G U21A U38G C76U C88A U112G A121C | -4.14 |
| U9C C13U G48A A74C U81G C101U U126C | -2.71 |
| U9C U125A | 0.386 |
| U9G G10U U14A C97U | -0.883 |
| U9A A26U C40G G58C U125G | -4.12 |
| C8U C80G | -4.55 |
| U9A A90U U96C U106A G128C | -5.11 |
| C8U C12U C64A C123U | -4.54 |
| U9A A50U C102A | -1.91 |
| C8U A24G G44U U106C | -1.81 |
| U9A G42A G57U C115A G127U U131A | -3.74 |
| C8U C12A G42A C70U U92A | -4.6 |
| U9C G48U G52C G117U | -2.68 |
| C8U C114G U126C | -1.85 |
| C8U G19C C56A C115A | -2.03 |

| Variant | polymerase ribozyme fitness (log ratio) |
| --- | --- |
| C8U G120U | 1.14 |
| C8U U92A | -2.72 |
| U9C U54A C101U | 0.158 |
| C8U A29G A43G | -3.05 |
| C8G U38C A50U C115A | 0.783 |
| U9C C15G A43U | -1.5 |
| C8U G17A | -2.57 |
| C8G U9C C56G | 0.364 |
| U9G C11U C53U U81A | -0.54 |
| C8U U33A | -3.59 |
| U9G C102U G135U | -2.17 |
| U9A G36A G113A | -0.728 |
| C8U G44A C56A C72A U81C A111C | -3.76 |
| C8U C73A C88G | -1.06 |
| C8U G63A C102A U106C G113A U130G | -5.25 |
| C8G U9G C73G C123A | 1.1 |
| C8U U32G C101A C115G | -5.52 |
| U9A A75U U96G | -0.383 |
| U9G G23U | -6.6 |
| C8U A50U | -0.00813 |
| C8U G52U C56A G77U A121U | 1.55 |

| Variant | polymerase ribozyme fitness (log ratio) |
| --- | --- |
| C8U C72U U87C | 0.806 |
| C8U C13U A37C C70U A119G | -0.292 |
| U9G C22G C101A C115U | -3.13 |
| U9G C12G G93C | -0.487 |
| U9G C40A C76U C114A | -2.63 |
| U9C G47U G63U | -1.41 |
| U9A A84U A121C | 2.06 |
| U9A U87A | 1.16 |
| U9G C22G U81C | -3.31 |
| C8U G42A C88U | -0.816 |
| C8G U9G | 0.256 |
| C8U G93C | 0.0241 |
| U9C A26G C34A G39A C97A C115A A121G | -1.6 |
| U9C C31U C56A A103U G120U | -6.8 |
| U9G C20U G51U C94U | -4.89 |
| C8U A50U C94A | -1.52 |
| U9C G19U C70U | -3.94 |
| U9C U133G | 0.11 |
| C8G U14A U55G C73G C97A | -4.31 |
| U9C A43C A46G | -1.4 |
